Columns and labels:
[1] = target: feline APN ectodomain without the Fc fusion (dimer) (feline) (UniProt P79171); assay: cryo-EM structure
[2] = target: FCoV-23 S domain B (receptor-binding domain), residues 529-677, avi- and His-tagged (FCoV-23 (feline coronavirus)); assay: BLI

Chain of canine APN-Fc ectodomain (dimeric) (P79143 71-975): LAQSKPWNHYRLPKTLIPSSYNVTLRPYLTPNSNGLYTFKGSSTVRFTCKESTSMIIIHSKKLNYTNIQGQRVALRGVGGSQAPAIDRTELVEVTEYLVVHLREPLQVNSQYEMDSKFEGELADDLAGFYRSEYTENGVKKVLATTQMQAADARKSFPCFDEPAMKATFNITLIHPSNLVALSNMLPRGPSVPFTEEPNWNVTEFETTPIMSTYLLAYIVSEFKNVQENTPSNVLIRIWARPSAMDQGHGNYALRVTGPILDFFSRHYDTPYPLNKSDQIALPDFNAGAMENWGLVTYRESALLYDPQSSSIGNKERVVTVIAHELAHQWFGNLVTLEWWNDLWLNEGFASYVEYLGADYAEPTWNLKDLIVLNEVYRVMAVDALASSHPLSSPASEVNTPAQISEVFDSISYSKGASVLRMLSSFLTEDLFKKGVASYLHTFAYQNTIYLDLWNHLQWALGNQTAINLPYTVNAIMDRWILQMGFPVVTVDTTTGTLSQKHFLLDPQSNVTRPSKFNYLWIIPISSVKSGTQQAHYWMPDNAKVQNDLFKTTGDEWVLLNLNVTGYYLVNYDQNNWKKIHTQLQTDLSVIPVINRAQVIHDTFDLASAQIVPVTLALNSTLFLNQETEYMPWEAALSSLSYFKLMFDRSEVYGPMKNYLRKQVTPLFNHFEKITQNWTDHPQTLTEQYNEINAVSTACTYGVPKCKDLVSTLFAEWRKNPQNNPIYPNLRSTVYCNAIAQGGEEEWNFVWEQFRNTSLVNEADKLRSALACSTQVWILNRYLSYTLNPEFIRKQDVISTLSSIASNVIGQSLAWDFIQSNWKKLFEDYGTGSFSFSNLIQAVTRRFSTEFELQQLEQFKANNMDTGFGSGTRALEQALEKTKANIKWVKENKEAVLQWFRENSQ
Chain of feline APN-Fc ectodomain (dimeric) (P79171 64-967): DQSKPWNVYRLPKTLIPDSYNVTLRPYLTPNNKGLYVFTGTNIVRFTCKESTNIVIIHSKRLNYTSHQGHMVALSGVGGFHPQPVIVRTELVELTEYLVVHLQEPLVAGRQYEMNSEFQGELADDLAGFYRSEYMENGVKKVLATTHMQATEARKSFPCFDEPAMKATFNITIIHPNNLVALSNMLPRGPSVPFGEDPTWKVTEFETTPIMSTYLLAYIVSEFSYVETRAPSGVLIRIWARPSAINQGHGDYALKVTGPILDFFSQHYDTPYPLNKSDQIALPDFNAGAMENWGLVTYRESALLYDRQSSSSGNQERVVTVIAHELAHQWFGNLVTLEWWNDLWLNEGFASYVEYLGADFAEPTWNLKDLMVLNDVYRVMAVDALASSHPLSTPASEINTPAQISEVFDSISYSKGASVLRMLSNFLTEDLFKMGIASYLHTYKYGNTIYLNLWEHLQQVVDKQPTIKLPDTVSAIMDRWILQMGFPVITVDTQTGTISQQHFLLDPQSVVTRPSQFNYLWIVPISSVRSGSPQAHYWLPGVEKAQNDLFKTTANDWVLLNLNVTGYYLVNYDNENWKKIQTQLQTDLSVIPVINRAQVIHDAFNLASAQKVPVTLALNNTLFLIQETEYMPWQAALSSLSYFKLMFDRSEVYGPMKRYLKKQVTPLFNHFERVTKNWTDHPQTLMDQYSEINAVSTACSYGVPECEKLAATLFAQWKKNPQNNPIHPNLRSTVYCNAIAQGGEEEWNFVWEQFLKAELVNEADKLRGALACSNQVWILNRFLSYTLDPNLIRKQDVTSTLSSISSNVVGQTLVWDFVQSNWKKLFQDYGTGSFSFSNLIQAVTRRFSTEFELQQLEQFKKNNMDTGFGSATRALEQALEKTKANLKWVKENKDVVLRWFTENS
Chain of feline APN ectodomain without the Fc fusion (dimer) (feline) (P79171 64-967): as above

Substance	stoichiometry N (RBD per APN protomer) [1]	Kd [2]
FCoV-23 S domain B (receptor-binding domain), residues 529-677, avi- and His-tagged (domain or fragment)	1	–
canine APN-Fc ectodomain (dimeric) (from UniProt P79143 71-975) (Fc fusion)	–	1.3 nM
feline APN-Fc ectodomain (dimeric) (from UniProt P79171 64-967) (Fc fusion)	–	11 nM
